Laboratory results: IntAct's records for PubMed 22484091

B1: Charged multivesicular body protein 4b (Homo sapiens), Q9H444 (parent)
chain: MSVFGKLFGAGGGKAGKGGPTPQEAIQRLRDTEEMLSKKQEFLEKKIEQELTAAKKHGTKNKRAALQALKRKKRYEKQLAQIDGTLSTIEFQREALENANTNTEVLKNMGYAAKAMKAAHDNMDIDKVDELMQDIADQQELAEEISTAISKPVGFGEEFDEDELMAELEELEQEELDKNLLEISGPETVPLPNVPSIALPSKPAKKKEEEDDDMKELENWAGSM
B2: BRO1 domain-containing protein BROX (Homo sapiens), Q5VW32 (parent)
chain: MTHWFHRNPLKATAPVSFNYYGVVTGPSASKICNDLRSSRARLLELFTDLSCNPEMMKNAADSYFSLLQGFINSLDESTQESKLRYIQNFKWTDTLQGQVPSAQQDAVFELISMGFNVALWYTKYASRLAGKENITEDEAKEVHRSLKIAAGIFKHLKESHLPKLITPAEKGRDLESRLIEAYVIQCQAEAQEVTIARAIELKHAPGLIAALAYETANFYQKADHTLSSLEPAYSAKWRKYLHLKMCFYTAYAYCYHGETLLASDKCGEAIRSLQEAEKLYAKAEALCKEYGETKGPGPTVKPSGHLFFRKLGNLVKNTLEKCQRENGFIYFQKIPTEAPQLELKANYGLVEPIPFEFPPTSVQWTPETLAAFDLTKRPKDDSTKPKPEEEVKPVKEPDIKPQKDTGCYIS
B3: BRO1 domain-containing protein BROX (Homo sapiens), Q5VW32 (parent)
chain: B2 chain
partner: B1 chain

Variants of: B1
Conditions: with brox_human BROX

Row | Variant | effect of a mutation on the interaction
1 | W220A | decreasing interaction strength
2 | L217A | decreasing interaction strength

Variants of: B2
Conditions: with CHMP5, Q9NZZ3-1
Sequence of CHMP5, Q9NZZ3-1 (Q9NZZ3 whole entry): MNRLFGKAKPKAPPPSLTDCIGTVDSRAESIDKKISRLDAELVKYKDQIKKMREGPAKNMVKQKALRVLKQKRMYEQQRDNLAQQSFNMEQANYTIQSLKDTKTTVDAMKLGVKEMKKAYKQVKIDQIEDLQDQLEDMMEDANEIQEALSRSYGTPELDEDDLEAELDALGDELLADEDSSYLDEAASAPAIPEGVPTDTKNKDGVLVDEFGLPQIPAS

Row | Variant | effect of a mutation on the interaction
3 | Y348A | disrupting interaction strength
4 | H204A | disrupting interaction strength
5 | L208D;L212D | disrupting interaction strength

Variants of: B3
Conditions: with chm4b_human CHMP4B

Row | Variant | effect of a mutation on the interaction
6 | L208D;L212D | disrupting interaction strength
